Results published in patent EP0662514A1.

Columns and labels:
[1] = target: Chymotrypsin (bovine) (Bovine) (UniProt P00766); assay: cell-based or functional assay
[2] = target: Factor Xa (human) (Human) (UniProt P00742); assay: cell-based or functional assay
[3] = target: Trypsin (bovine) (Bovine) (UniProt P00760); assay: cell-based or functional assay
[4] = target: Cathepsin G (human) (Human) (UniProt P08311); assay: enzyme inhibition at equilibrium, apparent Ki from fit to the tight binding inhibitor equation
Chain of UniProt P08311 (P08311 21-244 limits assumed): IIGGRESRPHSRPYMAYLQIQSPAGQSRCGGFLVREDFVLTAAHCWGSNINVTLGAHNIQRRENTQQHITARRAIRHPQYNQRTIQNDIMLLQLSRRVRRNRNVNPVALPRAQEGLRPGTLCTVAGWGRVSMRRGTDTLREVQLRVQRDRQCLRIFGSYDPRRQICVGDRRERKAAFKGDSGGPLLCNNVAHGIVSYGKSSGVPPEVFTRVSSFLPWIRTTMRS

[5] = target: Chymotrypsin (bovine) (Bovine) (UniProt P00766); assay: as above
Plasmin (human) (Human) = Plasmin (human) (Human) (UniProt P00747); assay: as above
Chain of UniProt P00747 (P00747 97-810 limits assumed): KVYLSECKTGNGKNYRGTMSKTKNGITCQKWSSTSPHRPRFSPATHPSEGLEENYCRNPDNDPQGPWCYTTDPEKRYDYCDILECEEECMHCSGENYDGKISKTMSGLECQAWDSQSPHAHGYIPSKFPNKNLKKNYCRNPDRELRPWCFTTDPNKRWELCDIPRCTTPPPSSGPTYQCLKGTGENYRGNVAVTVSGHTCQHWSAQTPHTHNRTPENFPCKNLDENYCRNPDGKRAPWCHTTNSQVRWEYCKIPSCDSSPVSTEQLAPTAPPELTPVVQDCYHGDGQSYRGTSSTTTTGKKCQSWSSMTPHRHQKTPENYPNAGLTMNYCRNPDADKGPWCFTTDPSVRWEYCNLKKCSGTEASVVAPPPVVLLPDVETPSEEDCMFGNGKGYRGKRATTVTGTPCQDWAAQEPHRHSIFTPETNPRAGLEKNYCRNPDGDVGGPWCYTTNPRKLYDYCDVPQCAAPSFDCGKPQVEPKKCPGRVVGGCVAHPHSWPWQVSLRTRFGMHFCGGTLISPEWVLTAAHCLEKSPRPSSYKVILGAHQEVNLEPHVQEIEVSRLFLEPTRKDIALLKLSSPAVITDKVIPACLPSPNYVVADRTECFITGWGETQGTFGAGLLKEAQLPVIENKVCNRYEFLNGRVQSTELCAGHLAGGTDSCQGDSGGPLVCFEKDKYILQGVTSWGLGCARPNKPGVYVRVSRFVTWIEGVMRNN

[6] = target: Tissue kallikrein (porcine) (Porcine) (UniProt P00752); assay: as above
Chain of UniProt P00752 (P00752 8-246 limits assumed): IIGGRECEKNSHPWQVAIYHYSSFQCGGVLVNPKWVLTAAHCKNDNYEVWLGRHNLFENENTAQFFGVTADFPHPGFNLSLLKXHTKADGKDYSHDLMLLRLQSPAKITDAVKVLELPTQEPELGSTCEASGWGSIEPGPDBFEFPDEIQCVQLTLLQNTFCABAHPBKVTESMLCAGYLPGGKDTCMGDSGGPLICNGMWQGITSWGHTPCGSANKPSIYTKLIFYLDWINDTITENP

[7] = target: Trypsin (bovine) (Bovine) (UniProt P00760); assay: as above

Chain of UniProt P00742 (P00742 41-488 limits assumed): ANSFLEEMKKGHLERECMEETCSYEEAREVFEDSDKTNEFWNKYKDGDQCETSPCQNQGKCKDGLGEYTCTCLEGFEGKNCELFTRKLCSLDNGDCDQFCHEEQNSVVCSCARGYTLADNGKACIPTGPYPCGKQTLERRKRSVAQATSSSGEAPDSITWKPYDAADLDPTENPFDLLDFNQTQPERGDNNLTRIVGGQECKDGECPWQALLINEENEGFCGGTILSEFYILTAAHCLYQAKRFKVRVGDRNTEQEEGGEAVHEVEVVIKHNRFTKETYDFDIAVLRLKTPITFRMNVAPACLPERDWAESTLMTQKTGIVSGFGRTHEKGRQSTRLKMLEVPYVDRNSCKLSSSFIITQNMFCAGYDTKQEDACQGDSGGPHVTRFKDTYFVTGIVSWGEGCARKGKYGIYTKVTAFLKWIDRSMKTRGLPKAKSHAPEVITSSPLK
Chain of UniProt P00760 (P00760 24-246): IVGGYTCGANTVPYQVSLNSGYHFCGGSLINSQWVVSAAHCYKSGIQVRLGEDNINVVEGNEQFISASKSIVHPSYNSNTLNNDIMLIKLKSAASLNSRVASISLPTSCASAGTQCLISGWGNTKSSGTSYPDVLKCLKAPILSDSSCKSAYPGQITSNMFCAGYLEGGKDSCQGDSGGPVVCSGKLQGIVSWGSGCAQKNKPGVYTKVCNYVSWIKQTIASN

SA [IU/mg] (specific inhibitory activity against chymotrypsin, Mono S pool) [1]: 0.15 IU/mg
Partial Thromboplastin Time, hirustasin at 1.3 mM; buffer 47.3 s [2]: 47.9 s
Quick (prothrombin time), hirustasin at 1.3 mM; buffer 79 % [2]: 80%
SA [IU/mg] (specific inhibitory activity against trypsin, Mono S pool) [3]: 2.7 IU/mg
Ki [4]: 2.9 nM
Ki [5]: 6.4 nM
Ki (Plasmin (human) (Human)): 138 nM
Ki [6]: 13 nM
Ki [7]: 7 nM
Substance: hirustasin
